# Laboratory results taken from the nanobody polyreactivity screen of Harvey et al. (2022).
# Experiment: yeast display, Sf9 membrane polyspecificity reagent, FACS + sequencing; frameworks hold sequencing errors
# In short: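 Galactose-induced (36–48 hours) yeast carrying a synthetic nanobody display library were exposed to 10% biotinylated, detergent-solubilized Sf9 membrane reagent at 4 °C for 1 hour. FACS followed streptavidin microbead enrichment, using low and high (top ~1%) gates for expression (anti-HA) and reagent binding (streptavidin). Colony PCR, MiSeq 2 × 250 sequencing and CDR-length filtering followed. Labels for polyreactivity reflect the gate of origin.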
row,Sequence,polyreactivity (PSR sort gate)
1,QVQLVESGGGLVQAGGSLRLSCAASGRTLRIYAMGWYRQAPGKERELVAAITSSGRTNYADSVKGRFTISRDNAKNTVYLQMNSLKPEDTAVYYCAAVTPAVNYFRAASGYYYWGQGTQVTVSS,low polyreactivity
2,QVHLVESGGGLVQAGGSLRLSCAASGGTLYANAKGWYRQAPGKERELVATITSSSGSTSYADSVKGRFSISRDNAKNTVYLQKNSLKPEDTAVYYCAKDSHAQGPYRYIHYHHTGDYWGQGTQVTVSS,low polyreactivity
3,QVQLVESGGGLVQAGGSLRLSCAASGSIFENNVMGWYRQAPGKERELVAVISWNGGRTYYADSVKGRFTISRDNAKNTVYLQMNSLKPEDTAVYYCNAQGYFWSESIEYDYWGQGTQVTVSS,low polyreactivity
4,QVQLVESGGGLVQAGGSLRLSCAASGSIFRKNAMGRYRQAPGKERELVAAITGTGRTTYADSVKGRFTISRDNAKNTVYLQMNSLKPEDTAVYYCAADVNYYQHRLYYWGQGTQVTVSS,low polyreactivity
5,QVQLVESGGGLVQAGGSLRLSCAASGITFSSYAMGWSRQAPGKERELVAAISSGGSTYYADSVKGRFTISRDNAKNTVYLQMNSLKPEDTAVYYCRPLVTLDWYKFGYWGQGTQVTVSS,low polyreactivity
6,QVQLVESGGGLVQAGGSLRLSCAASGRIFNWYGMGWYRQAPGKERELVATISSSGDSTYYADSVKGRFTISRDNAKNTVYLQMNSLKPEDTAVFYCAKRARYKFGYWGQGSQVTVSS,high polyreactivity
7,QVQLVESGGGLVQAGCSLRLSCAASGRTFYYYAMGWYRQAPGKERELVAAISKSGGSTYYADSVKGRFTISRDNAKNTVYLQMNSLKPEDTAVYYCAALTTHAPHSYNYWGQGTQVTVSS,low polyreactivity
8,QVQLVESGGGLVQAGGSLRLSCAADGFTFYVYAMGWYRQAPGKERELVADISRRGGSTYYADYVKGRFTISRDNEKNHVYLQMNSLKPEDTAVYYCAAQYYGGGTYWYRYGYWGQGTQVTLSS,high polyreactivity
9,QVQLVESGGGLVQAGGSLRLSCAASGRTFFRYAMGWYRPAPGKERELVAAITRSGGSTYYADSVKGRFTISRDNAKNTVYLLMNSLKPEDTAVYYCAAPREAYSRGYDSWGQGTQVTVSS,high polyreactivity
10,QVQIVESGGGLVQAGGSLRLSCAASGFTFVINDMGWYRQAPGKERELVADITSGGDTYYADSVKGRFTISRDNAKNTVYLQMNSLKPEDTAVYYCAADIYPDWIYLLYGYWGQGTQVTVSS,low polyreactivity
11,QVQLVESGGGLVQAGGSLRLSCAASGSTFIRYVMGWYRQAPGKERELVASITISVGSTYADSVKGRFTISRDNAKHTVYLQMNSLKPEDTAVYYCNARYVENTPYPYDYWGQGTQVTVSS,low polyreactivity
12,QVQLVESGGGLVQAGGSLRLSCAASGSTFQFYAMGWSRQAPGKERELVATISSGDSTNYADSVKGRFTISRDNAKNTVYLQMNSLKPEDTAVYYCAADFWGQYQGLDGGDYWGQGTQVTVSS,low polyreactivity
13,QVQLVESGGGIVQAGGSLRLSCAASGRSFPNNAMGWYRPAPGKERELLAAISSGSSTDYADSVKGRFTISRDNAKNTVSLQMNSLKPEATAVYYCNAGDYTYPGSPWPGYAYDYWGLGTQVTVSS,low polyreactivity
14,QVQLVESGGGLVQAGGSLRLSCAASGFNFVYYAMGWYREAPGKERELVAVISWSGGSTNYADSVKGRFTISRDNAKNTVYLQMNSLKPEDTAVYYCAADAYAYTPYYGYRVDYWGQGTQVTVSS,high polyreactivity
15,QVQIVESGGGLVQAGVSLRLSCAPSGFIFSVYAMGWYRQAPGKEMELVAGITRNGGITYYADSVKWRFTISRDNAKNTVYLQMNSLKPEDSAVYYCAAQAPKRRPFYGYYWGQGTQVTVSS,high polyreactivity
16,QVQLVESGGGLVQAGGSLRLSCAASGSTFYVNDMGWYRQAPGKERELVAAIDWTGGTTYYADSVKGRFTISRDNAKNTVYLQMNSLKPEDTAVYYCAVDDSTVDYDYWGQGTQVTVSS,low polyreactivity
17,QVQLVESGGGLVQAGGSLRLICAASGITFPSNTMGWYRQAPGKERELVAAITRGDNTYYADSVKGRFTISRDNAKNTVYLQMNSLKPEYTAVYYCATEGYQIQYEHDYWGQGTIVTVSS,low polyreactivity
18,QVQLVESGGGLVQAGGRLRLSCAASGSIFPFYAMGWYRQAPGKERELVAAISDRGGSTYYADSVKGRFTISRDNAKNTVYLQMISLKPEDTAVYYCAKGGEVSQGYTDEYDYWGQGTQVTVSS,low polyreactivity
19,QVQIVESGGGLVQAGGSLRLSCAASGRIFGPYPMGWYRQAHVKERELVAAISCRGSSTYYADSVKGRFSISRDYAKNTVYLHMIILKPEDTAVFYCAKYPTYSYDYWGQGTQVTVSS,high polyreactivity
20,QVQLVESGGGLVQAGGSLRLSCAASGIIFKIYAMGWYRQAPGKERELVAAISKRGASTYYADSVKGRFTISRDNAKNTVYLQMNSLKPEDTAVYYCAAYRQGSAYDYWGQGTQVTVSS,high polyreactivity
21,QVQLVESGGGLVQAGGSLRLSCAASGLIFLYAMGWYRQAPGKERELVAAISNGGSTYYADSVKGRFTISRDNAKNTVYLQMNSLKPEDTAVYYCAAKGVRRRYRQDMYYWGQGTQVTVSS,high polyreactivity
22,QVQLVESGGGLVQEGGSLRLSCAASGRTIVSNAMGWYRQAPGKERELVAAIRYGGGRTYYADSVKGRFTISRDNAKNTVYLQMNSLKPEDTAVYYCAKRSVGGTGYYWGQGTQVTVSS,high polyreactivity

row,Sequence,polyreactivity (PSR sort gate)
1,QVQLVESGGGLVQAGGSLRLSCAASGTFAGNAMGWYRQAPGKERELVAAITTGGRTYYADSVKRRFTISRDNAKNTLYIQMNSLKPEDTAVYYCAADRIRDLEFDYWGQGTQVTVSS,low polyreactivity
2,QVQLVESGGGLVQAGGSLRLSCAASGFIFDSYAMGWYRQAPGKESELVAAINWNGGRTYYADSVRGRFTISRDNAKNTVYLQMNSLKPEDTAVYYCNAPGIHLGYYRFGYWGQGTQVTVSS,high polyreactivity
3,QVQLVDSGGGLVQAGGSLRLSCAASGRIFYRYALGWYRQAPGKERELVAAITRGGRTNYADSVKGRFTISRDNAQNTVYLQMNSLKPEDTAVYYCRPLWYGFDYWGQGTQVTVSS,high polyreactivity
4,QVQLVESGGGLVQAGRSLRLSCAASGRIFGTYAMGWYRQAPGKERELVAAITQSGGRTYYADSVKGRFTISRDNAKNTVYLQMNSLKPEDSAVYFCNIVTYRGIGLGYDYWGHGTQVTVSS,high polyreactivity
5,QVELVESGGGLVQAGGSLRLSCSASGSIFYKYAMGWYRQAPGKERELVAAIRVSGGSTYYADSVKGRFTISRDNAKNTVYLQMNSLKPEDTAVYYCAAESKFPWGYRYDYWGQGTQVTVSS,low polyreactivity
6,QVQLVESGGGLVQAGGSLRLSCAASGRTFTPYAMGWYRQAPGKERELVAAISIGGPTNYADSVKGRFTISRDNAKNTVYLQMNSLKPEDTADYYCAADSYYLGRDGFGFYAYTYDYWGQGTEVTVSS,low polyreactivity
7,QVQLVESGGGLVQAGGSLRLSCAASGRIIKFYAMGWYRQAPGKERELVARISRSGGRTYYADSVKGRFTISRDNAKITVYLQMNSLKPEDTAVYYCAADTQSVATYDYWGQGTQVTVSS,low polyreactivity
8,QVQLVESGGGLVQAGGSLRLSCAASGSTFFYNVMGWYRQAPGKERELVAAITSSGGGTYYADSVKGRFTISRDNAKNTVYLQMNSLKPEDTAVYYCAKPVWLRDYRHGGRFGYWGQGTQVTVSS,low polyreactivity
9,QVQLVESGGGLVQAGGSLRLSCAASGFTFTYYVMGWYRQAPGKDRELVAAISQGGGSTYYADSVKGRFTISRDNAKNTVYLQMNSLKPEDTAVYYCAARRVGYGTDRYYGYDSWGQGTQVTVSS,high polyreactivity
10,QVQLVESGGGLVQAGGSLRLSCAASGRIFSKYGMGWYRQAPGKETEFVAAISGSGTNTYYADSVKGRFTISRDNAKNTVYLQMNSLKPEDTAVYYCAKRKSVRSTPSYEYWGQGTQVTVSS,high polyreactivity
11,QVQLVESGGGLVQAGGSLRLSCAASGRTSVGYVMGWYRQAPGKERELVASITSGGSTYYADSVKGRFTISRDNAKNTVYLQMNSLKPEDTAVYYCAAQLKSHRTYGHDYWGQGTQVTVSS,low polyreactivity
12,QVQLVESGGGLVQARGSLRLSCAASGSTFYYNTMGWYRQAPGKERELVAAITSSGGRTYYADSVKGRFTISRDNAKNTVYLQMNSLKPEDTAVYYCAAKRVGSTANRRVTKYDWGQGTQVTVSS,high polyreactivity
13,QVQLVESGGGLVQAGGSLRLSCAASGSTFPGNAMGWYRQAPGKERELVAAIDTSGGSTYYADSVKGRFTISRDNAKNTVYLQMNSLKAEDTAVYYCDADYLIEMDYWGQGTQVTVSS,low polyreactivity
14,QVQLVESGGCLVQAGGSLRLSCAASGRIFAWYAMGWYRQAPGKERELVAAISDSGGSTYYADSVKGRFTISRDNAKNTVYLQMNSLKQEDTAVYYCAADQVVYSAYWSDHYDYWGQGTQVTVSS,low polyreactivity
15,QVQLVESGGGLVQAGGSLRLSCAASGRIFGVYAMGWYRQAPGKERELVAAISSGASTYYADSVKGRFTISRDNAKNTVYLQMNSLKPEDTAVYYCAKSVKGGTGYYYWGQGTQVTVSS,low polyreactivity
16,QVQLVESGGGLVQAGGSLRLRCAASGRTFAFYGMGWYRQAPGNARELVAAITKRGGSTYYADSVKGRFTISLDNAKYTVYLQMNSLKPEDTAVYYCAATGVKGRIAVWYGYWGQGTQVTVSS,high polyreactivity
17,QIQLVESCGGLVQAGGSLRLICDDSGITFTIYAMGGYRQAHGKERELVAAIDSGGGTNYADSVKGRFTISRDNAKNTVYLQMNSLKPEDTAFYYCAAYWYAEGYWVSRDYWGQGTQVTVSS,low polyreactivity
18,QVQLVESGGGLVQAGGSLRLSCAASGSILDVYAMGWYRQAPGKERELVATISWSGGDTYYADSVKGRFTISRDNAKNTVYLQMNSLKPEDTAVYYCNDVFSYYGYDYWGQGTQVTVSS,low polyreactivity
19,QVQLVESGGGLVQAGGSLRLSCAASGLIFVKYARGWYRQAPGKEREFVAAITRSGGTTYYADSVKGRFTISRDNAKNPVYLQMNSLKPEDTAVYYCAAGVVIYFFGGGDYWGQGPQVTVSS,low polyreactivity
20,QVQLVESGGGLVQAGGSLRLSCAASGRIFRPYAMGWYRQAPGKERELVARINGSGGSTYYADSVKGRFTISRDTAKNTVYFQMNSLKPEDTAVYYCNVRRIIRYLGYTHTKISWLDYWGQGTQVTVSS,high polyreactivity
21,QVQLVESGGGLVQAGGSLRLSCAASGSIFRSYAIGWYRQAPGKERELVASISRRGGSTYYADSVKGRFTISRDNAKNTVYLQMKSLKPEDTAVYYCAAVRYNSRVSTTPSEMYYWGQGTQVTVSS,low polyreactivity
